Experimental data taken from the supplement of paper PMC9876800.

System: peptide library, one residue held at a place counted from the S/T acceptor
Assay: relative phosphorylation of the sub-library (ratio to the mean residue at this position); higher = residue favoured
Method in brief: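 Relative sub-library phosphorylation is the ratio of each sub-library's signal to the mean residue at that position. The signal came from phosphorimaging of spots on streptavidin membranes, quantified by densitometry, after purified recombinant kinases reacted with biotinylated degenerate peptide sub-libraries in 384-well plates. Reactions held 50 μM peptide and 50 μM ATP spiked with γ-32P-ATP for 90 min under kinase-specific conditions.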

Chain of GRK4, construct: Full length, human (P32298 whole entry, looked up): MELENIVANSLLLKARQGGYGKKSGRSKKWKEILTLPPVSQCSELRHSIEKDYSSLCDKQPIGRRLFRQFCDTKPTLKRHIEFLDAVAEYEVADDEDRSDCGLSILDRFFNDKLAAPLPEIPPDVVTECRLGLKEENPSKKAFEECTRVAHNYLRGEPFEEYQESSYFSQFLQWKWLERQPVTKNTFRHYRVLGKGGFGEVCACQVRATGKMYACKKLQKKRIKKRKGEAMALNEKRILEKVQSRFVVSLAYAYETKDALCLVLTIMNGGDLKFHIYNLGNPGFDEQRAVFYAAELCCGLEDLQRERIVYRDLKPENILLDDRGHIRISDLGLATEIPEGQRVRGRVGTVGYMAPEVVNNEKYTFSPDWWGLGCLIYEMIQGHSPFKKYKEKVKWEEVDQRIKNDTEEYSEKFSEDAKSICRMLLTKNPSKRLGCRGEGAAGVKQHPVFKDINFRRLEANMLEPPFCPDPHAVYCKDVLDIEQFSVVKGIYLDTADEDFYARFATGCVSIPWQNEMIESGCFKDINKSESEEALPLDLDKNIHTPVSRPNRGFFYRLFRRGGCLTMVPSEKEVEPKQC
Chain of GSK3B, construct: Full length, human (P49841 whole entry, looked up): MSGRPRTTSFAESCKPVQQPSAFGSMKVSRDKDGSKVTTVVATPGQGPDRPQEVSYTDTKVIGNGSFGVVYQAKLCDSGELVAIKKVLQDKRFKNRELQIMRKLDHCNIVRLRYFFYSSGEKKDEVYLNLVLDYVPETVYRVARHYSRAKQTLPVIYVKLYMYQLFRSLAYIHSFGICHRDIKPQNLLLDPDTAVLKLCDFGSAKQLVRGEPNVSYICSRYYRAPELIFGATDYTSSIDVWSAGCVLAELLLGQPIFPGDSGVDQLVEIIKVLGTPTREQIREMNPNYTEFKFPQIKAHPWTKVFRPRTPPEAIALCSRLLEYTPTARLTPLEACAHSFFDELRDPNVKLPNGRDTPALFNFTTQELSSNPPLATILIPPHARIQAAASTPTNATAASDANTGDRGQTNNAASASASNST
Chain of HASPIN, construct: aa452-798, human (Q8TF76 452-798, looked up): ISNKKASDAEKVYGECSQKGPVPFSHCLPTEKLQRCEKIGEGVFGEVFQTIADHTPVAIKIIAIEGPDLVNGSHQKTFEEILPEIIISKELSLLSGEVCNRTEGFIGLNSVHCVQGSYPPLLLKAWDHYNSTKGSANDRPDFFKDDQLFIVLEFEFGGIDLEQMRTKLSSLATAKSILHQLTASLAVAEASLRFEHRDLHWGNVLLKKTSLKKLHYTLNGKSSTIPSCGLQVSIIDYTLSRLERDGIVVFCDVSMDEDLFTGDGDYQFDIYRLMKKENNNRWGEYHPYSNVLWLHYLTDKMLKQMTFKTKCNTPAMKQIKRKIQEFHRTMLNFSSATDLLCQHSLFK

DYRK4, construct: Full length, human (from UniProt Q9NR20)
relative phosphorylation
Settings	at +1	at +2	at +3	at +4	at -1	at -2	at -3	at -4	at -5
A fixed	0.514	0.92	0.735	0.738	1.25	2.4	1.05	1.07	0.995
D fixed	0.171	2.1	1.07	1.49	0.773	0.283	0.554	0.801	0.827
E fixed	0.189	1.81	0.985	1.28	0.959	0.27	0.54	0.85	0.807
F fixed	0.166	1.03	0.935	1.27	0.671	0.366	0.464	0.725	1.09
G fixed	0.614	0.629	1.3	1.06	1.28	0.977	1.29	1.13	1.1
H fixed	0.173	1.09	0.909	1.03	0.925	0.493	0.88	0.961	1.11
I fixed	0.268	1.35	0.696	1.09	0.73	0.781	0.491	0.939	0.9
K fixed	0.228	0.317	0.428	0.543	0.87	0.421	0.796	0.857	0.922
L fixed	0.202	1.18	1.42	0.967	0.832	0.871	0.624	0.893	0.825
M fixed	0.21	1.23	1.12	1.19	1.16	0.844	0.647	0.888	0.78
N fixed	0.2	0.738	0.825	0.866	0.847	0.907	0.728	0.719	0.882
P fixed	12	0.629	3.2	0.896	1.71	2.89	1.05	1.3	1.02
Q fixed	0.266	0.783	0.882	0.958	0.962	0.629	0.805	0.916	1.04
R fixed	0.93	0.367	0.554	0.672	1.41	3.18	5.51	2.49	1.98
V fixed	0.578	1.07	0.637	0.87	0.963	1.02	0.478	0.731	0.792
W fixed	0.163	0.909	0.726	1.16	0.595	0.321	0.533	0.875	0.656
Y fixed	0.161	0.843	0.569	0.919	1.06	0.354	0.556	0.863	1.28
pThr fixed	0.375	4.81	0.992	1.93	0.506	0.647	0.592	0.868	0.978
pTyr fixed	0.365	3.13	1.37	2.35	1.04	0.383	0.698	0.896	1.44

GRK4, construct: Full length, human (from UniProt P32298)
relative phosphorylation
Settings	at +1	at +2	at +3	at +4	at -1	at -2	at -3	at -4	at -5
A fixed	0.613	1.5	0.747	0.859	0.654	0.895	0.863	0.994	1
D fixed	0.683	1.24	1.53	1.65	1.57	2.39	1.88	1.75	1.83
E fixed	1.41	0.872	1.57	1.51	1.2	1.95	1.88	1.69	1.48
F fixed	1.52	1.23	1.51	1.17	0.998	0.992	0.902	0.854	0.992
G fixed	0.577	0.879	0.953	0.928	0.619	0.983	0.927	0.965	1.02
H fixed	0.879	0.954	0.99	0.911	1.92	0.855	0.911	0.897	0.991
I fixed	1.57	1.54	0.741	0.779	0.637	0.649	0.697	0.752	0.695
K fixed	0.455	0.414	0.432	0.614	0.492	0.547	0.612	0.778	0.89
L fixed	1.01	0.356	0.763	0.777	0.882	0.619	0.745	0.835	0.796
M fixed	1.44	0.717	0.918	0.894	0.792	0.681	0.858	0.874	0.794
N fixed	0.674	0.753	0.685	0.906	1.28	1.18	1.03	1.05	0.954
P fixed	0.249	0.522	0.928	1.3	0.607	0.77	1.2	0.977	0.892
Q fixed	1.28	0.613	0.662	0.903	0.805	0.872	0.912	0.839	0.86
R fixed	0.602	0.408	0.554	0.654	0.542	0.789	0.787	0.797	0.814
V fixed	1.75	1.85	0.782	0.855	1.21	0.71	0.721	0.812	0.773
W fixed	1.16	1.73	2.11	1.29	0.812	1.21	0.941	1.09	1.25
Y fixed	1.12	1.43	1.12	1	1.97	0.903	1.13	1.05	0.975
pThr fixed	1.45	0.994	1.12	2.32	0.656	3.34	3.2	1.75	1.4
pTyr fixed	1.46	1.33	1.25	1.81	1.73	3.38	2.82	2.06	1.71

GSK3B, construct: Full length, human (from UniProt P49841)
relative phosphorylation
Settings	at +1	at +2	at +3	at +4	at -1	at -2	at -3	at -4	at -5
A fixed	0.927	1.01	0.893	0.871	1.05	1.09	1.63	1.02	1.15
D fixed	0.826	0.857	0.911	0.938	0.885	0.92	0.898	0.969	0.83
E fixed	0.818	0.917	1.23	2.42	0.855	0.898	0.865	0.851	0.83
F fixed	0.942	1.05	1.06	0.871	0.863	0.855	0.812	0.918	1.05
G fixed	0.928	0.92	0.966	0.843	1.17	1.1	1.47	1.18	1.21
H fixed	0.985	1.16	1.1	0.988	1.02	0.885	0.883	0.989	1.02
I fixed	1.02	0.984	0.929	0.795	0.889	1.01	0.871	0.913	1
K fixed	1.02	1.02	1.01	0.983	1.1	1.12	0.935	1.11	0.979
L fixed	0.966	0.994	0.923	0.849	0.916	0.882	0.785	0.966	1.03
M fixed	0.975	0.99	1.06	0.911	1.08	0.882	0.891	0.943	0.968
N fixed	0.963	1.12	0.983	0.992	1.04	0.935	0.899	1.02	0.855
P fixed	1.77	0.904	0.972	0.942	1.18	1.23	1.13	1.08	1.1
Q fixed	1	1.09	0.986	0.92	1.09	0.931	0.889	0.942	0.895
R fixed	1.01	1.05	1.05	0.848	1.06	1.48	1.36	1.06	0.973
V fixed	1.02	0.908	0.887	0.8	0.916	0.977	0.904	0.982	1.04
W fixed	0.977	1.01	0.997	1.03	0.962	0.957	0.913	1.05	1.08
Y fixed	0.854	1.01	1.04	1	0.931	0.846	0.866	1.02	0.997
pThr fixed	1.01	1	3.53	66.5	0.946	1.02	1.15	1.16	0.927
pTyr fixed	1.14	1.04	2.26	2.62	1.66	1.13	1	1.15	0.929

HASPIN, construct: aa452-798, human (from UniProt Q8TF76)
relative phosphorylation
Settings	at +1	at +2	at +3	at +4	at -1	at -2	at -3	at -4	at -5
A fixed	0.379	1.04	0.824	0.822	0.515	2.18	0.883	0.899	0.836
D fixed	0.166	0.469	0.344	0.766	0.155	0.679	0.544	0.634	0.517
E fixed	0.161	0.359	0.28	0.404	0.158	0.483	0.577	0.767	0.526
F fixed	0.587	0.877	0.984	0.829	0.354	0.76	0.749	0.936	0.812
G fixed	0.467	0.751	1.02	1.03	0.615	1.17	1.1	0.985	0.887
H fixed	0.682	1.36	1.09	1.14	0.606	0.783	1.11	0.964	1.01
I fixed	0.779	0.69	0.652	0.819	0.286	0.734	0.693	0.844	2.68
K fixed	5.48	1.95	1.81	2.09	1.5	1.39	1.92	1.39	1.23
L fixed	0.621	0.783	0.797	0.749	0.294	0.464	0.694	1.54	0.645
M fixed	0.766	1.56	0.782	1.01	0.42	0.47	0.644	0.933	0.777
N fixed	0.295	0.762	0.801	0.86	0.427	0.737	0.941	0.738	0.763
P fixed	0.807	0.559	0.714	0.801	0.493	1.83	1.12	0.987	1.32
Q fixed	0.469	1.19	0.819	1	0.591	0.672	0.834	0.974	0.722
R fixed	2.67	1.78	3.05	1.65	9.3	1.83	2.79	1.57	1.33
V fixed	0.622	0.657	0.731	0.714	0.285	1.27	0.768	0.951	0.982
W fixed	0.51	1.25	1.09	1.33	0.313	0.749	0.82	0.918	0.922
Y fixed	1.54	0.971	1.21	0.979	0.683	0.809	0.807	0.969	1.05
pThr fixed	0.315	0.44	0.466	0.648	0.379	1.23	1.14	0.928	0.991
pTyr fixed	0.322	0.359	0.492	0.589	0.582	0.966	1.09	0.743	1.01
